Reference: article PMC11189929, “Non-consecutive enzyme interactions within TCA cycle supramolecular assembly regulate carbon-nitrogen metabolism” (Nature Communications, 2024)
Values belong to the molecule of their own block, whether it stands above or below them.

Key:
[1] = target: T1, Escherichia coli MDH (Escherichia coli, UniProt P61889); set-up: Purified MDH activity, NADH oxidation at 340 nm with varied oxaloacetate, 150 uM NADH, pH 7.4, Michaelis-Menten fit; conditions: substrate; read-out: KM (oxaloacetate)
T1 construct: C-terminal His6 tag, pET24a, expressed in E. coli BL21(DE3)
T1 sequence (P61889 1-312): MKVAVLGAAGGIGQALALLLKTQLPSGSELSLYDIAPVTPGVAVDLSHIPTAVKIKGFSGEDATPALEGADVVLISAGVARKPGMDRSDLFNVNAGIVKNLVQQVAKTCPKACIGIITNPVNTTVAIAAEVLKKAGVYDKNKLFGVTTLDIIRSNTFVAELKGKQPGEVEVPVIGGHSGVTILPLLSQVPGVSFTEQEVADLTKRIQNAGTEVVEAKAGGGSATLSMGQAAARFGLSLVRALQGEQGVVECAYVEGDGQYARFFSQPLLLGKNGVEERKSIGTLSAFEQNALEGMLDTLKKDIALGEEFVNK
Method: (§1) Determination of MDH activity was based on spectroscopic assays (30). […] Specifically, a range of oxaloacetate (Sigma) concentrations (7.5–250 µM), 150 µM NADH (Sigma), 5 nM MDH in 0.1 M sodium phosphate buffer, pH 7.4 were used. […] The catalytic parameters, kcat and KM, were calculated by fitting the data using non-linear regression to Michaelis-Menten equation, v0 = (kcat·[E]·[S])/(KM + [S]), where v0 is initial velocity, [E] is MDH concentration, [S] is […]. Original and mutated mdh genes used in the study are summarized in Supplementary Data 1. B. subtilis mdh gene was amplified by PCR from the chromosomal DNA of B. subtilis PY79. Nucleotide sequences of orthologous mdhs were collected from the KEGG database (https://www.genome.jp/), synthesized by GENEWIZ^© and cloned into i) pHT254 B. subtilis expression vector (MoBiTec Molecular Biotechnology), and ii) pET24a E. coli expression vector (Merck-Novagen) using Gibson assembly. […] All MDH proteins were tagged with Hisx6t at the C-terminal end. Mdh genes cloned into pHT254 plasmid were transformed into B. subtilis PY79. Mdh genes cloned into pET24a plasmid were transformed into E. coli Bl21(DE3) strain.

[2] = substrate: O=C(O)CC(=O)C(=O)O; assay: purified protein; type: biochemical, Oceanobacillus iheyensis; conditions: 150 uM NADH, oxaloacetate 7.5-250 uM, 5 nM MDH, 0.1 M sodium phosphate pH 7.4
[3] = substrate: O=C(O)CC(=O)C(=O)O; assay: purified protein, by the assay type; set-up: Purified MDH activity, NADH oxidation at 340 nm with varied oxaloacetate, 150 uM NADH, pH 7.4, Michaelis-Menten fit; conditions: pH 7.4
Method: as §1

[4] = substrate: O=C(O)CC(=O)C(=O)O; assay: purified protein; type: biochemical, Bacillus subtilis; conditions: 150 uM NADH, oxaloacetate 7.5-250 uM, 5 nM MDH, 0.1 M sodium phosphate pH 7.4
[5] = target: T2, isocitrate dehydrogenase (ICD) from Bacillus subtilis (B. subtilis) (UniProt P39126)
T2 sequence: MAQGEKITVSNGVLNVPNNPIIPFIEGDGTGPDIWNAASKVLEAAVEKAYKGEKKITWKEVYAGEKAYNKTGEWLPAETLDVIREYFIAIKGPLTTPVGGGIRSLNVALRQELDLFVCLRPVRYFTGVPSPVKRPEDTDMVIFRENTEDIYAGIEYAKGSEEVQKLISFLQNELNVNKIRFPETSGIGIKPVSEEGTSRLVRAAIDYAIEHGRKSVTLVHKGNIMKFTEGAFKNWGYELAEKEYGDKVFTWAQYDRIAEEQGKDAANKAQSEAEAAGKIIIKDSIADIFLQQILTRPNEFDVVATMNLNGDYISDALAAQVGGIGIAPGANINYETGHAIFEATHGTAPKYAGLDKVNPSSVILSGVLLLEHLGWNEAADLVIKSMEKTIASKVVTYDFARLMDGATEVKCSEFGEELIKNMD

[6] = target: T2, isocitrate dehydrogenase (ICD) from Bacillus subtilis (B. subtilis); remark: listed apart in the source

Km [1]: 39 µM
Molecule: O=C(O)CC(=O)C(=O)O [oxaloacetate]

B1: O. iheyensis MDH (OceMDH) (Oceanobacillus iheyensis HTE831) (protein)
chain: MGLKRKKISVIGSGFTGATTALMVAQKELGDVVLVDIPDMEDPTKGKALDMAEAAPVQGFDAKITGTSNYADTEGSDLVIITAGIARKPGMSRDDLVNTNANIMKSVTKEIVHYSPNTTIVVLTNPVDAMTYTVFKESGLPKERVIGQSGILDTARFRTFVAEELNLSVKDVTGFVLGGHGDDMVPLIRYSYAGGIPLEKLIPQERLDAIVQRTRTGGGEIVNLLGNGSAYYAPAASLTVMAEAILKDQRRVLPTIAYLEGEYGYQDIYLGVPTILGGEGIEEIIELDLTKEEKAQLDKSADSVKNVLNVLQ
notes: 34,592 Da printed
Km [2]: 23 µM
kcat [2]: 249 s⁻¹

B2: Geobacillus kaustophilus MDH (Geobacillus kaustophilus HTA426) (protein)
chain: MAMKRKKISVIGAGFTGATTAFLLAQKELGDVVLVDIPQLENPTKGKALDMLEASPVLGFDANIIGTSDYADTADSDIVVITAGIARKPGMSRDDLVTTNQKIMKQVTKEVVKYSPNCYIIVLTNPVDAMTYTVFQESGFPKNRVIGQSGVLDTARFRTFVAEELNISVKDVTGFVLGGHGDDMVPLVRYSYAGGIPLEKLIPKDRLDAIVERTRKGGGEIVNLLGNGSAYYAPAASLVEMVEAILKDQRRILPAIAYLEGEYGYEGIYLGVPTILGGNGIEKVIELELTEEEKAALAKSVESVKNVMRMLE
notes: C-terminal His6 tag, pET24a, expressed in E. coli BL21(DE3)
Km [3]: 54 µM
kcat [3]: 59 s⁻¹
kcat/Km [3]: 1.1e+06 M⁻¹ s⁻¹

B3: B. subtilis MDH (BsMDH) (Bacillus subtilis subsp. subtilis str. 168) (protein)
chain: GNTRKKVSVIGAGFTGATTAFLIAQKELADVVLVDIPQLENPTKGKALDMLEASPVQGFDAKITGTSNYEDTAGSDIVVITAGIARKPGMSRDDLVSTNEKIMRSVTQEIVKYSPDSIIVVLTNPVDAMTYAVYKESGFPKERVIGQSGVLDTARFRTFVAEELNLSVKDVTGFVLGGHGDDMVPLVRYSYAGGIPLETLIPKERIDAIVERTRKGGGEIVNLLGNGSAYYAPAASLTEMVEAILKDQRRVLPTIAYLEGEYGYEGIYLGVPTIVGGNGLEQIIELELTDYERAQLNKSVESVKNVMKVLS
notes: full-length, C-terminal His6 tag, pET24a, expressed in E. coli BL21(DE3), Ni-NTA and SEC; 33,643 Da printed
Km [4]: 12 µM
kcat [4]: 120 s⁻¹

partitioning of 2-oxoglutarate towards the droplet phase against the continuous phase, droplets with 1:500 molar excess of MDH, after 40 min of incubation [5]: 2 fold
rate of 2-oxoglutarate formation by ICD within BSA/PEG LLPS droplets, MDH/ICD molar ratios 1:1, 10:1, 50:1, 100:1, 250:1 and 500:1 (~10% enhancement at 10:1; plateau at and above 250:1) [6]: 180%
B4: malate dehydrogenase (MDH) from Bacillus subtilis (enzyme)
chain: MGNTRKKVSVIGAGFTGATTAFLIAQKELADVVLVDIPQLENPTKGKALDMLEASPVQGFDAKITGTSNYEDTAGSDIVVITAGIARKPGMSRDDLVSTNEKIMRSVTQEIVKYSPDSIIVVLTNPVDAMTYAVYKESGFPKERVIGQSGVLDTARFRTFVAEELNLSVKDVTGFVLGGHGDDMVPLVRYSYAGGIPLETLIPKERIDAIVERTRKGGGEIVNLLGNGSAYYAPAASLTEMVEAILKDQRRVLPTIAYLEGEYGYEGIYLGVPTIVGGNGLEQIIELELTDYERAQLNKSVESVKNVMKVLS
